Tests used:
[1] = Standard enzyme activity measurement toward PPO, crude enzyme (per volume fermentation broth); type: biochemical; details: toward PPO; for Enzyme activity of mutants (U/mL): crude enzyme, standard system, N.D. = no detectable activity
Method: The preserved recombinant E. coli is streaked onto the plate for activation. Single colonies are picked and inoculated into 5 mL LB liquid medium containing 50 μg/mL kanamycin and cultured at 37° C. for 12 h. The culture is transferred to 50 mL fresh LB liquid medium containing 50 μg/mL kanamycin at a 2% inoculum, and then incubated at 37° C. until the OD600 reaches 0.6; after that, add IPTG to a final concentration of 0.5 mM, and then proceed with induction culture under the temperature of 18° C. for 16 h.
After the cultivation, the culture is centrifuged at 10000 rpm for 10 min; discard supernatant, and collect cells. The harvested cells are washed for 2 times using pH 7.5 50 mM phosphate buffer. After that, the cells are re-suspend into the pH 7.5 phosphate buffer and disrupted ultrasonically (400W for 30 times, Ultrasonic time is 3 s, and the interval is 7 s). The cell disrupted solution is centrifuged at 12000 g for 5 min at 4° C. to remove the precipitate, and the supernatant obtained is the crude enzyme containing recombinant glutamate dehydrogenase
The standard enzyme activity measurement system: Appropriate amount of enzyme, 100 mM substrate, 10 mM coenzyme (NADH or NADPH), 500 mM NH4^+ ((NH4)2SO4); total system volume is up to 400 μL; reaction medium is pH 7.5 phosphate buffer. 35° C. reaction for 10 min; after that, add 40 uL 5 M NaOH to terminate reaction.
Definition of enzyme activity unit: The quantity of enzyme as required by generation of 1 μmol L-phosphinothricin per minute under standard reaction conditions.
Proceed with induction culture of constructed mutants, and prepare crude enzyme solution.

[2] = Preparation of L-phosphinothricin by coupling glutamate dehydrogenase with glucose dehydrogenase; type: biochemical; details: 500 mM PPO, NAD+, GluDH cells 1.25 g/L
Method: The reaction process is monitored by measuring the concentration of substrate in the reaction solution applying high-performance liquid chromatography (HPLC). HPLC analysis method is stated as follows: column model: Pntulips® QS-C18, 5 μm, 4.6 mm×250 mm. Mobile phase: 50 mM (NH4)2HPO4, added 1% of 10% tetrabutyl ammonium hydroxide, adjusted to pH 3.6 with 50% phosphoric acid(mass fraction), added 8% acetonitrile. Detective wave length is 205 nm; flow rate is 1.0 mL/min. Column temperature is 40° C.
The enantiomeric excess and concentration of product are determined through pre-column derivatization high-performance liquid chromatography; the specific analysis method is stated as follows:
(1) HPLC condition: column model: Pntulips® QS-C18, 5 μm, 4.6 mm×250 mm. Mobile phase: 50 mM Sodium acetate: Acetonitrile=8: 0.5 (v/v). Detective wave length: 338 nm. Flow rate: 0.85 mL/min. Column temperature: 30° C.
(2) Derivatization reagent: Weigh 0.03 g phthalaldehyde and 0.1 g N-acetyl-L-cysteine, and use 400 uL ethanol for solubilization; after that, add 4 mL 0.2 mol/L borate buffer (pH 9.8) and shake for dissolution prior to storage in the fridge under the temperature of 4° C. (no more than 4 days).
(3) Derivatization reaction and analysis: Add 150 μL derivatization reagent into 100 μL sample, mix and incubate at 25° C. for 5 min, and then inject 20 μL for analysis.
Culture recombinant E. coli expressing glutamate dehydrogenase (PpGluDH) and glucose dehydrogenase (BsGDH-2M, SEQ ID NO. 21) with method in Step 3 of Embodiment 1; proceed with centrifugal collection of cells and ultrasonic cell disruption to prepare crude enzyme solution.
(§1) The final volume of the reaction is 30 mL; each sample contains 500 mM substrate PPO, 600 mM glucose, 250 mM (NH4)2SO4 and 0.5 mM NADP^+. Concentration of glutamate dehydrogenase cells (dry weight) is 1.0 g/L; concentration of glucose dehydrogenase cells (dry weight) is 1.25 g/L. Use water bath to control the reaction temperature at 35° C.; titrate ammonia to control pH at 7.5 during the reaction process. Use non-chiral HPLC to determine residual concentration of PPO after reaction for 6 h; meanwhile, use pre-column derivatization HPLC to determine the concentration and ee value of formed L-phosphinothricin.
as §1, with “0.5” for “1.0”
as §1, with “NAD^+.” for “NADP^+.”, “1.25” for “1.0”
The final volume of the reaction is 30 mL; each sample contains 500 mM substrate PPO, 600 mM glucose, 250 mM (NH4)2SO4 and 0.5 mM NAD^+. Concentration of glutamate dehydrogenase cells (dry weight) is 1.25 g/L; concentration of glucose dehydrogenase cells (dry weight) is 1.25 g/L. Use water bath to control the reaction temperature at 35° C.; titrate ammonia to control pH at 7.5 during the reaction process. […]

B1: BtGluDH-A155G: BtGluDH mutant A155G, SEQ ID NO. 19 (protein)
chain: MVTENTQGKEQKQESMNLLQSTQTVIKEALEKLGYQESMYELLKEPLRVLTVRIPVRMDNGEVKVFTGYRAQHNDAVGPTKGGIRFHPDVTEDEVKALSIWMSLKAGIVDLPYGGGKGGIICDPREMSFRELERLSRGYVRAVSQIVGPTKDIPGPDVFTNSQIMAWMMDEYSRIREFDSPGFITGKPIALGGSHGRETATAKGVTICIREAAKRRGIDLKGARVVVQGFGNAGSYLSKFMHDAGAKVVGISDAYGALYDPNGLDIDYLLDRRDSFGTVTKLFTNTITNKELLELDCDILVPAAIENQITAANAHNIKAKIVVEAANGPTTLEATKILTERGILLVPDVLASAGGVTVSYFEWVQNNQGYYWSEEEVQEKLEKVMVKAFENVYSLAQTRRVDMRLAAYMVGVRKMAEASRFRGWV
modifications: Brevibacillus thermoruber glutamate dehydrogenase mutant
For B1, the “Enzyme activity of mutants (U/mL)” value [1] was 0.50 U/mL, the “concentration of formed L-phosphinothricin” value (from here on “concentration”) ([2]; 50° C., pH 7.5, 6 h) was 80.3 g/L and the “residual PPO” value ([2]; 50° C., pH 7.5, 6 h) was 1.4 mM. The substrate conversion ([2]; 50° C., pH 7.5, 6 h) was 99.7%.

B2: PeGluDH-A164G: PeGluDH mutant A164G, SEQ ID NO. 5 (protein)
chain: MIESVDHFLARLQQRDPAQPEFHQAVEEVLRSLWPFLEQNPHYLEAGILERMVEPERAVLFRVSWVDDQGKVQVNRGYRIQMSSAIGPYKGGLRFHPSVNLGVLKFLAFEQVFKNSLTSLPMGGGKGGSDFDPKGKSDAEVMRFCQAFMSELYRHIGADLDVPGGDIGVGAREIGFLFGQYKRLANQFTSVLTGKGMTYGGSLIRPEATGYGCVYFAEEMLKRQEQRIDGRRVAISGSGNVAQYAARKVMDLGGKVISLSDSEGTLFCEAGLTDEQWDALMELKNVKRGRISELAGRFGLEFRKGQTPWSLACDIALPCATQNELNADDARTLLRNGCICVAEGANMPTTLDAVDIFIEAGILYAPGKASNAGGVAVSGLEMSQNAMRLLWTAGEVDSKLHHIMQSIHHVCVHYGEEADGRINYVKGANIAGFVKVADAMLAQGVV
modifications: Pseudomonas entomophila glutamate dehydrogenase mutant
For B2, the Fold change ([1]; enzyme activity of mutant versus wild type) was 110 and the “Enzyme activity of mutants (U/mL)” value [1] was 11.29 U/mL.

B3: CsGluDH-A164G: CsGluDH mutant A164G, SEQ ID NO. 17 (protein)
chain: MSKYVDRVIAEVEKKYADEPEFVQTVEEVLSSLGPVVDAHPEYEEVALLERMVIPERVIEFRVPWEDDNGKVHVNTGYRVQFNGAIGPYKGGLRFAPSVNLSIMKFLGFEQAFKDSLTTLPMGGAKGGSDFDPNGKSDREVMRFCQAFMTELYRHIGPDIDVPGGDLGVGAREIGYMYGQYRKIVGGFYNGVLTGKARSFGGSLVRPEATGYGSVYYVEAVMKHENDTLVGKTVALAGFGNVAWGAAKKLAELGAKAVTLSGPDGYIYDPEGITTEEKINYMLEMRASGRNKVQDYADKFGVQFFPGEKPWGQKVDIIMPCATQNDVDLEQAKKIVANNIKYYIEVANMPTTNEALRFLMQQPNMVVAPSKAVNAGGVLVSGFEMSQNSERLSWTAEEVDSKLHQVMTDIHDGSAAAAERYGLGYNLVAGANIVGFQKIADAMMAQGIAW
modifications: Clostridium symbiosum glutamate dehydrogenase mutant
In the case of B3, the “Enzyme activity of mutants (U/mL)” value [1] is reported as 2.61 U/mL, the “concentration” value ([2]; 35° C., pH 7.5, 6 h) is reported as 79.6 g/L and the “residual PPO” value ([2]; 35° C., pH 7.5, 6 h) is reported as 0 mM. For the same molecule, the substrate conversion ([2]; 35° C., pH 7.5, 6 h) was 100%.

B4: CsGluDH-V378A: CsGluDH mutant V378A, SEQ ID NO. 18 (protein)
chain: MSKYVDRVIAEVEKKYADEPEFVQTVEEVLSSLGPVVDAHPEYEEVALLERMVIPERVIEFRVPWEDDNGKVHVNTGYRVQFNGAIGPYKGGLRFAPSVNLSIMKFLGFEQAFKDSLTTLPMGGAKGGSDFDPNGKSDREVMRFCQAFMTELYRHIGPDIDVPAGDLGVGAREIGYMYGQYRKIVGGFYNGVLTGKARSFGGSLVRPEATGYGSVYYVEAVMKHENDTLVGKTVALAGFGNVAWGAAKKLAELGAKAVTLSGPDGYIYDPEGITTEEKINYMLEMRASGRNKVQDYADKFGVQFFPGEKPWGQKVDIIMPCATQNDVDLEQAKKIVANNIKYYIEVANMPTTNEALRFLMQQPNMVVAPSKAVNAGGALVSGFEMSQNSERLSWTAEEVDSKLHQVMTDIHDGSAAAAERYGLGYNLVAGANIVGFQKIADAMMAQGIAW
modifications: Clostridium symbiosum glutamate dehydrogenase mutant
In the case of B4, the “Enzyme activity of mutants (U/mL)” value [1] is reported as 1.76 U/mL, the “concentration” value ([2]; 35° C., pH 7.5, 12 h) is reported as 78.5 g/L and the “residual PPO” value ([2]; 35° C., pH 7.5, 12 h) is reported as 1.8 mM. For the same molecule, the substrate conversion ([2]; 35° C., pH 7.5, 12 h) was 99.6%.

From patent US10865391B2, “Glutamate dehydrogenase mutants and their application in preparation of L-phosphinothricin” (ZHEJIANG UNIVERSITY, priority 2018, dated 2020)
